Where “and” joins values, the source holds several entries; their conditions need not be identical. Equal entries are not always repeated.

Assay [1] concerns the target CXCL1-Fc fusion protein (UniProt P09341). Kind of assay: SDS-PAGE under reducing and non-reducing conditions; purified proteins separated under reducing and non-reducing conditions, Coomassie Blue staining.
For assay [2], the target named is CXCR2 on THP-1 cells (human (endogenous in THP-1)) (UniProt P25025). Kind of assay: flow cytometry on cells; THP-1 cells incubated on ice with purified proteins for 30 min; bound protein detected with a fluorophore-conjugated anti-His tag antibody; FACS buffer (PBS, 1% FBS, 150 μM CaCl2); Fc receptors blocked with Human SeroBlock; single dose and a range of concentrations.

The target of assay [3] is CXCR2 on THP-1 cells (UniProt P25025). The assay can be described thus: flow cytometry on cells. Conditions: THP-1 cells (CXCR2+), FITC-conjugated anti-6X His antibody.
Assay [4] has as its target CXCR2 on THP-1 cells (human (endogenous in THP-1)) (UniProt P25025).
The target of assay [5] is CXCL5-Fc fusion protein (UniProt P42830). The assay can be described thus: SDS-PAGE under reducing and non-reducing conditions; purified proteins separated under reducing and non-reducing conditions, Coomassie Blue staining.
Setting [6] is: n = 3, parent: est. 100000, read off a plot.

CXCL1^1-Fc^1, sequence (P09341 whole entry): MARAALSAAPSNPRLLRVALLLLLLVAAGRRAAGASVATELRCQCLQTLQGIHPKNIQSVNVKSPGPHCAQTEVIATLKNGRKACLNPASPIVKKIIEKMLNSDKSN
CXCL1^1-Fc^2, sequence (P09341 whole entry, looked up, tested part not stated): as the sequence (P09341 whole entry) above

Regarding “CXCL1-Fc fusion protein (from UniProt P09341 35-107)”, in assay [1], the stoichiometry N worked out at 2. Further, the fold higher mean fluorescence intensity per cell than CXCL1^1-Fc^2 or CXCL1^1-Fc^1 in assay [2] is 3 fold and 4 fold.

In the case of “CXCL1-Fc fusion protein (from UniProt P09341) CXCL1-Fc chain:T366Y; Fc chain:Y407T”, the response in assay [3] (setting [6]) is 19000 MFI; in assay [3] (parent: 99.9) it was 98.5%. Taken in the same sequence, the figures for “CXCL1-Fc fusion protein (from UniProt P09341) T366Y” were 22000 MFI and 97.9%.

As to “CXCL1^1-Fc^1 (from UniProt P09341 35-107) (Fc fusion)”, in assay [4], the IC50 of inhibition of THP-1 cell migration toward PDAC conditioned medium (Boyden chamber) amounted to 211 nM. Still for that read-out and setting: the result for “CXCL1^1-Fc^2 (from UniProt P09341 35-107) (Fc fusion)” reads 28 nM.

On to “CXCL5-Fc fusion protein (from UniProt P42830 37-114)”, for which the stoichiometry N in assay [5] was found to be 2.

The record behind these values is article PMC12108577.
